According to patent US7867500B2, “Cofactor that modulates steroid receptor activities” (The United States of America as represented by the …, priority 2004, dated 2011):

T1: RXR α (Homo sapiens, UniProt P19793)
T1 construct: plus VP16 fused to the indicated full length receptors; expressed in transfected cells; host or cells: CV-1
T1 sequence (P19793 1-462): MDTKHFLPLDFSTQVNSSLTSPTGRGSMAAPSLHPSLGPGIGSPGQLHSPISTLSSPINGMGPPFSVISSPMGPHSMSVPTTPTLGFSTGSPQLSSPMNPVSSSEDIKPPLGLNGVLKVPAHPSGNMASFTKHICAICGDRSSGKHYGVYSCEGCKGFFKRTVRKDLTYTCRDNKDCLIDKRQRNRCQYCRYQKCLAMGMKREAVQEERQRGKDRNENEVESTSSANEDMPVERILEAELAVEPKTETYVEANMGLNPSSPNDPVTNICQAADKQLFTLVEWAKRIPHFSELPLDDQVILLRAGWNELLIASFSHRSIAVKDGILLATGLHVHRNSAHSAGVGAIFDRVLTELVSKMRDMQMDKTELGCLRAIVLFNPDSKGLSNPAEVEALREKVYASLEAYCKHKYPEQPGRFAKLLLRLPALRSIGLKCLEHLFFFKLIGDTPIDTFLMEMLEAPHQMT

T2: PPARγ2 (Homo sapiens, UniProt P37231)
T2 construct: plus VP16 fused to the indicated full length receptors; expressed in transfected cells; host or cells: CV-1
T2 sequence (P37231 1-505): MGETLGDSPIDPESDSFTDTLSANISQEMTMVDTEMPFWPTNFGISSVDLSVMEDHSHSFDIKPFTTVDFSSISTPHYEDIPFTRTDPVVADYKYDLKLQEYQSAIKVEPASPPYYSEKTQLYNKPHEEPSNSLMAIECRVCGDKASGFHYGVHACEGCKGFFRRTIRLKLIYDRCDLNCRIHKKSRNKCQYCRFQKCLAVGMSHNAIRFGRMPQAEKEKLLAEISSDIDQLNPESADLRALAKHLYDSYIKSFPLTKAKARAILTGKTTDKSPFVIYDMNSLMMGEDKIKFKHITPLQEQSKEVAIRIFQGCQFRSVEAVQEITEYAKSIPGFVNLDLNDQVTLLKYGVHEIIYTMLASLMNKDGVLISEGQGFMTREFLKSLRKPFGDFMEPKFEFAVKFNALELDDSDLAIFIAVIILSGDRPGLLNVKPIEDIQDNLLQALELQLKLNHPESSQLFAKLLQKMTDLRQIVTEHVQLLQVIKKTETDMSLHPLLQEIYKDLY

B1: STAMP: SRC-1 and TIF2 Associated Modulatory Protein, 1277 amino acid human polypeptide, expressed from transfected plasmid (protein)
chain: MARDLEETASSSEDEEVISQEDHPCIMWTGGCRRIPVLVFHADAILTKDNNIRVIGERYHLSYKIVRTDSRLVRSILTAHGFHEVHPSSTDYNLMWTGSHLKPFLLRTLSEAQKVNHFPRSYELTRKDRLYKNIIRMQHTHGFKVFHILPQTFLLPAEYAEFCNSYSKDRGPWIVKPVASSRGRGVYLINNPNQISLEENILVSRYINNPLLIDDFKFDVRLYVLVTSYDPLVIYLYEEGLARFATVRYDQGAKNIRNQFMHLTNYSVNKKSGDYVSCDDPEVEDYGNKWSMSAMLRYLKQEGRDTTALMAHVEDLIIKTIISAELAIATACKTFVPHRSSCFELYGFDVLIDSTLKPWLLEVNLSPSLACDAPLDLKIKASMISDMFTVVGFVCQDPAQRASTRPIYPTFESSRRNPFQKPQRCRPLSASDAEMKNLVGSAREKGPGKLGGSVLGLSMEEIKVLRRVKEENDRRGGFIRIFPTSETWEIYGSYLEHKTSMNYMLATRLFQDRMTADGAPELKIESLNSKAKLHAALYERKLLSLEVRKRRRRSSRLRAMRPKYPVITQPAEMNVKTETESEEEEEVALDNEDEEQEASQEESAGFLRENQAKYTPSLTALVENTPKENSMKVREWNNKGGHCCKLETQELEPKFNLMQILQDNGNLSKMQARIAFSAYLQHVQIRLMKDSGGQTFSASWAAKEDEQMELVVRFLKRASNNLQHSLRMVLPSRRLALLERRRILAHQLGDFIIVYNKETEQMAEKKSKKKVEEEEEDGVNMENFQEFIRQASEAELEEVLTFYTQKNKSASVFLGTHSKISKNNNNYSDSGAKGDHPETIMEEVKIKPPKQQQTTEIHSDKLSRFTTSAEKEAKLVYSNSSSGPTATLQKIPNTHLSSVTTSDLSPGPCHHSSLSQIPSAIPSMPHQPTILLNTVSASASPCLHPGAQNIPSPTGLPRCRSGSHTIGPFSSFQSAAHIYSQKLSRPSSAKAGSCYLNKHHSGIAKTQKEGEDASLYSKRYNQSMVTAELQRLAEKQAARQYSPSSHINLLTQQVTNLNLATGIINRSSASAPPTLRPIISPSGPTWSTQSDPQAPENHSSSPGSRSLQTGGFAWEGEVENNVYSQATGVVPQHKYHPTAGSYQLQFALQQLEQQKLQSRQLLDQSRARHQAIFGSQTLPNSNLWTMNNGAGCRISSATASGQKPTTLPQKVVPPPSSCASLVPKPPPNHEQVLRRATSQKASKGSSAEGQLNGLQSSLNPAASVPITSSTDPAHTKI
B2: STAMP834C: STAMP fragment amino acids 834-1277, receptor interaction domain (RID) (protein)
chain: GDHPETIMEEVKIKPPKQQQTTEIHSDKLSRFTTSAEKEAKLVYSNSSSGPTATLQKIPNTHLSSVTTSDLSPGPCHHSSLSQIPSAIPSMPHQPTILLNTVSASASPCLHPGAQNIPSPTGLPRCRSGSHTIGPFSSFQSAAHIYSQKLSRPSSAKAGSCYLNKHHSGIAKTQKEGEDASLYSKRYNQSMVTAELQRLAEKQAARQYSPSSHINLLTQQVTNLNLATGIINRSSASAPPTLRPIISPSGPTWSTQSDPQAPENHSSSPGSRSLQTGGFAWEGEVENNVYSQATGVVPQHKYHPTAGSYQLQFALQQLEQQKLQSRQLLDQSRARHQAIFGSQTLPNSNLWTMNNGAGCRISSATASGQKPTTLPQKVVPPPSSCASLVPKPPPNHEQVLRRATSQKASKGSSAEGQLNGLQSSLNPAASVPITSSTDPAHTKI

Legend:
Type in all cases: cell-based
[1] = test system: GR repression of an AP-1 induced gene; experiment: GR-mediated repression of PMA-induced AP-1/Luc reporter in U2OS.rGR cells; settings: 25 μM PMA, no Dex
Protocol: FIG. 5A-F illustrate STAMP modulation of GR-mediated repression. […] U2OS.rGR cells were transiently transfected with ±TIF2 (20 ng)±STAMP (100 ng) plasmids, AP-1/Luc reporter (20 ng), and Renilla control (10 ng) plasmid. The cells were induced with ethanol (EtOH) or 25 μM PMA±0.1 μM Dex. […] The average values±S.E.M. of four experiments are plotted. The numbers in parentheses above the bars labeled “PMA+Dex” represent the average fold repression caused by Dex± the various factors.
FIG. 5B illustrates that functional TIF2 is needed for optimal STAMP activity. U2OS.rGR cells were transiently transfected and processed as described for FIG. 5A but less STAMP (50 ng) was used and two concentrations of TIF2 or TIF2m123 (10 and 20 ng) were employed. The average values±S.E.M. of 4-5 experiments are plotted. An asterisk indicates a significant difference (P≦0.031) between samples containing equal amounts of TIF2 and TIF2m123.
Rogatsky et al. have reported that TIF2 augments GR repression of an AP-1 induced gene. […] The TIF2 domain identified as having TIF2 activity in GR repression was the same as used to isolate STAMP. In order to determine if STAMP was active in GR-mediated gene repression as well as induction, the ability of STAMP to increase the repressive activity of GR in the AP-1 responsive whole cell bioassay system was assessed using U2OS.rGR cells.

RXR α = target: T1, RXR α; experiment: Mammalian two-hybrid assay with VP16 full length receptor: RXRα; settings: 1 μM 9-cis-retinoic acid
Protocol: (§1) FIG. 6C1-3 illustrate the association of STAMP with assorted steroid/nuclear receptors, including glucocorticoid receptors (GRs), progesterone receptors (PRs), androgen receptors (ARs), estrogen receptors (ER α or β), PPARγ2 receptors, thyroid receptor beta (TR), and retinoid (α) receptors (RAR α or RXR α). Triplicate samples of CV-1 cells were transfected (as described for FIG. 6B) with GAL, or GAL fused to TIF2.4 or STAMP834C, plus VP16 fused to the indicated full length receptors and incubated with the appropriate steroid (1 μM Dex, 20 nM R5020, 1 nM R1881, 0.1 μM triiodothyronine, or 1 μM estradiol, roziglitazone, or 9-cis-retinoic acid). The average relative luciferase activities of 2-3 experiments±S.E.M. were then plotted. FIG. 6C1 illustrates the effects of STAMP association upon GR, PR and AR induced expression. FIG. 6C2 illustrates the effects of STAMP association upon ERα, ERβ and PPARγ2 induced expression. FIG. 6C3 illustrates the effects of STAMP association upon TR, RARα and RXRα induced expression.
(§2) These assays were conducted as described (He et al., 2002). […]

PPARγ2 = target: T2, PPARγ2; experiment: Mammalian two-hybrid assay with VP16 full length receptor: PPARγ2; settings: 1 μM roziglitazone
Protocol: as §1, §2

Molecule | fold induction by PMA [1] | interaction with RXR α (RXR α) | interaction with PPARγ2 (PPARγ2)
B1 | unchanged |  | 
B2 |  | lack of interaction | lack of interaction
